Results as given in PMC10157173 (Frontiers in Immunology, 2023).

Columns and labels:
[1] = biological target: T1, His-tagged recombinant human HER3 ECD (Homo sapiens (Human)., UniProt P21860); assay: ELISA; direct ELISA: His-tagged EGFR, HER2 or HER3 coated at 800 ng/ml in PBS on Maxisorp plates; two-fold or ten-fold dilutions of BiXAb™ or 1MAbs in PBS, 37°C, 1 h; detected with peroxidase-conjugated anti-human Fc; conditions: both partners purified
T1 construct: human HER3, extracellular domain (ECD); see the supplier's catalogue entry; also called HER3-His; source: bought: Sino Biological Inc (#10201-H08H)

[2] = biological target: T2, His-tagged recombinant human EGFR ECD (Homo sapiens (Human)., UniProt P00533); assay: as above; conditions: both partners purified
T2 construct: human EGFR, extracellular domain (ECD); see the supplier's catalogue entry; also called EGFR-His; source: bought: Sino Biological Inc (#10001-H08H)

B1: patritumab (antibody, V domains shown)
VH: QVQLQQWGAGLLKPSETLSLTCAVYGGSFSGYYWSWIRQPPGKGLEWIGEINHSGSTNYNPSLKSRVTISVETSKNQFSLKLSSVTAADTAVYYCARDKWTWYFDLWGRGTLVTVSS
VL: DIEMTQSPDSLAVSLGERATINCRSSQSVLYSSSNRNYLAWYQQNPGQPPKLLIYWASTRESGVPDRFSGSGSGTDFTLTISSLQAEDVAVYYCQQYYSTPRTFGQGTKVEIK
notes: heavy chain of patritumab; light chain of patritumab; also called 3Patri; anti-HER3 mAb; source: cloning, production and purification of mAbs at Icosagen; copies: 2 + 2
- binding result [1]: binds

B2: elgemtumab (antibody, V domains shown)
VH: EVQLLESGGGLVQPGGSLRLSCAASGFTFSSYAMSWVRQAPGKGLEWVSAINSQGKSTYYADSVKGRFTISRDNSKNTLYLQMNSLRAEDTAVYYCARWGDEGFDIWGQGTLVTVSS
VL: DIQMTQSPSSLSASVGDRVTITCRASQGISNWLAWYQQKPGKAPKLLIYGASSLQSGVPSRFSGSGSGTDFTLTISSLQPEDFATYYCQQYSSFPTTFGQGTKVEIK
notes: heavy chain of elgemtumab; light chain of elgemtumab; also called 3Elgem; anti-HER3 mAb; source: cloning, production and purification of mAbs at Icosagen; copies: 2 + 2
- binding result [1]: binds

B3: matuzumab (antibody, V domains shown)
VH: QVQLVQSGAEVKKPGASVKVSCKASGYTFTSHWMHWVRQAPGQGLEWIGEFNPSNGRTNYNEKFKSKATMTVDTSTNTAYMELSSLRSEDTAVYYCASRDYDYDGRYFDYWGQGTLVTVSS
VL: DIQMTQSPSSLSASVGDRVTITCSASSSVTYMYWYQQKPGKAPKLLIYDTSNLASGVPSRFSGSGSGTDYTFTISSLQPEDIATYYCQQWSSHIFTFGQGTKVEIK
notes: heavy chain of matuzumab; light chain of matuzumab; also called 1Matu; anti-EGFR mAb; source: cloning, production and purification of mAbs at Icosagen; matuzumab also donated by Merck AG; copies: 2 + 2
- binding result [2]: binds
